The values below come from paper PMC6503952, “Nuclear actin interactome analysis links actin to KAT14 histone acetyl transferase and mRNA splicing” (Journal of Cell Science, 2019).

The assay addresses Rabbit skeletal muscle actin (rabbit, UniProt P68135 1-377). Put plainly: pull-down; purified His–KAT14 or His–GST (from a lysate) held on Ni-NTA agarose beads, washed with up to 500 mM NaCl, then incubated with a 4-fold amount of rabbit skeletal muscle actin in G-buffer (5 mM Tris-HCl pH 7.5, 0.2 mM ATP, 0.2 mM CaCl2, 0.5 mM DTT) for 3 h at +4°C; western blot. To be noted: both partners purified.

B1: Recombinant human His-KAT14 (enzyme)
chain: MDSSIHLSSLISRHDDEATRTSTSEGLEEGEVEGETLLIVESEDQASVDLSHDQSGDSLNSDEGDVSWMEEQLSYFCDKCQKWIPASQLREQLSYLKGDNFFRFTCSDCSADGKEQYERLKLTWQQVVMLAMYNLSLEGSGRQGYFRWKEDICAFIEKHWTFLLGNRKKTSTWWSTVAGCLSVGSPMYFRSGAQEFGEPGWWKLVHNKPPTMKPEGEKLSASTLKIKAASKPTLDPIITVEGLRKRASRNPVESAMELKEKRSRTQEAKDIRRAQKEAAGFLDRSTSSTPVKFISRGRRPDVILEKGEVIDFSSLSSSDRTPLTSPSPSPSLDFSAPGTPASHSATPSLLSEADLIPDVMPPQALFHDDDEMEGDGVIDPGMEYVPPPAGSVASGPVVGVRKKVRGPEQIKQEVESEEEKPDRMDIDSEDTDSNTSLQTRAREKRKPQLEKDTKPKEPRYTPVSIYEEKLLLKRLEACPGAVAMTPEARRLKRKLIVRQAKRDRGLPLFDLDQVVNAALLLVDGIYGAKEGGISRLPAGQATYRTTCQDFRILDRYQTSLPSRKGFRHQTTKFLYRLVGSEDMAVDQSIVSPYTSRILKPYIRRDYETKPPKLQLLSQIRSHLHRSDPHWTPEPDAPLDYCYVRPNHIPTINSMCQEFFWPGIDLSECLQYPDFSVVVLYKKVIIAFGFMVPDVKYNEAYISFLFVHPEWRRAGIATFMIYHLIQTCMGKDVTLHVSASNPAMLLYQKFGFKTEEYVLDFYDKYYPLESTECKHAFFLRLRR
notes: KAT14, human; also called His-tagged KAT14; source: Sf9 (MultiBac baculovirus), purified (Ni-NTA, Superdex 200)
Regarding B1, the binding result is “binds”.
